Assay results: patent publication US20210363269A1 (ALX ONCOLOGY, published 2021)
Residue numbers refer to the chain shown, from its start. Numbers in names are those of the source.

Experiments:
human SIRP-α v1 [1] = biological target: T1, human SIRP-α v1 (human, UniProt P78324 31-149); assay: SPR, antibody on GLC chip
T1 construct: also called Human v1; Human V1
Outline: (§1)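 Protein A-purified antibodies were diluted to 80 nM in 10 mM sodium acetate pH 4.5 and amine-coupled (~1000 RU) to a GLC chip of a ProteOn XPR36 biosensor. SIRP analytes were injected one-shot at 100, 33, 11, 3.7, 1.2 and 0 nM in PBS pH 7.4 with 0.01% Tween-20 at 25° C. Association ran 90 s at 100 μL/min and dissociation 1200 s. KD came from double-referenced data fitted globally to a Langmuir model, as kd/ka.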

human SIRP-α v2 = biological target: T2, human SIRP-α v2 (human); assay: SPR, antibody on GLC chip
T2 construct: also called Human v2; Human V2
Outline: as §1

cynomolgus SIRP-α = biological target: T3, cynomolgus SIRP-α (cynomolgus monkey, UniProt Q5TFQ8 30-148 (human entry), limits assumed); assay: SPR, antibody on GLC chip
T3 construct: also called cyno1
T3 chain: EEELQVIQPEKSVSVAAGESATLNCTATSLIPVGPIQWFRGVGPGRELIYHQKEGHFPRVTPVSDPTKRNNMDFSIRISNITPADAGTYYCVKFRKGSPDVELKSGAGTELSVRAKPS
Outline: as §1

NOD mouse SIRP-α [2] = biological target: T4, NOD mouse SIRP-α (mouse (NOD strain)); assay: SPR, antibody on GLC chip
T4 chain: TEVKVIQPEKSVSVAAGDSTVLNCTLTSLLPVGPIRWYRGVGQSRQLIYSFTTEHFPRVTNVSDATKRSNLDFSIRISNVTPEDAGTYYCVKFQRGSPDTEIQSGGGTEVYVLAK
Outline: as §1

BL6 mouse SIRP-α [3] = biological target: T5, BL6 mouse SIRP-α (mouse (C57BL/6 strain), UniProt P97797 32-148); assay: SPR, antibody on GLC chip
T5 construct: also called C57BL/6
T5 sequence: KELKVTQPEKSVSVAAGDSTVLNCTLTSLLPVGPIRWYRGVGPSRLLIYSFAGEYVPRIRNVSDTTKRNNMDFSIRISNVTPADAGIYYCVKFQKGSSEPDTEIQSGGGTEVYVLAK
Outline: as §1

BALBc mouse SIRP-α [4] = biological target: T6, BALBc mouse SIRP-α (mouse (BALB/c strain)); assay: SPR, antibody on GLC chip
T6 chain: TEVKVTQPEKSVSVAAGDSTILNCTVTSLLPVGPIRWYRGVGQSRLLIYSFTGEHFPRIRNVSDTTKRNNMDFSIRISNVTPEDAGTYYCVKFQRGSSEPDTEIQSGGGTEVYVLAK
Outline: as §1

human SIRPβ isoform 1 = biological target: T7, human SIRPβ isoform 1 (human, UniProt O00241 30-148); assay: SPR, antibody on GLC chip
T7 construct: also called Beta; Human SIRPb
Outline: as §1

human SIRPγ isoform 1 [5] = biological target: T8, human SIRPγ isoform 1 (human, UniProt Q9P1W8 29-147); assay: SPR, antibody on GLC chip
T8 construct: also called Gamma; Human SIRPg
Outline: as §1
T8 sequence (Q9P1W8 29-147 limits assumed): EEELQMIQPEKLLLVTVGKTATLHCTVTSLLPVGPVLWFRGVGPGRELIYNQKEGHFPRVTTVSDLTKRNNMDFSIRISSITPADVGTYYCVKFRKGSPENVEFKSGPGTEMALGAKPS

human SIRP-α v1 [6] = biological target: T1, human SIRP-α v1; assay: SPR
Outline: (§2)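 On a ProteOn XPR36 biosensor, purified antibodies were either amine-coupled to a GLC chip or captured on an NLC chip using biotinylated Protein A. The running buffer was PBS pH 7.4 with 0.01% Tween-20, at 25° C. SIRP analytes, at nominal concentrations fixed by A280 absorbance, were injected in one-shot kinetic mode. The rate constants are apparent values from a global simple Langmuir fit of double-referenced data, and KD equals kd/ka.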

NOD mouse SIRP-α [7] = biological target: T4, NOD mouse SIRP-α; assay: SPR
Outline: as §2

BALBc mouse SIRP-α [8] = biological target: T6, BALBc mouse SIRP-α; assay: SPR
Outline: as §2

BL6 mouse SIRP-α [9] = biological target: T5, BL6 mouse SIRP-α; assay: SPR
Outline: as §2

[10] = biological target: T9, human SIRP-α v1 D1 domain (human, UniProt P78324 31-149); assay: SPR, antibody immobilised on GLC chip
T9 construct: also called human v1; human α v1
Experimental: (§3) All experiments were performed at 25° C. using a SPR-based ProteOn XPR36 biosensor (BioRad, Inc, Hercules, Calif.) equipped with GLC or NLC sensor chips. […] Purification was carried out by standard Protein A affinity column chromatography and eluted antibodies were stored in PBS buffer.
(§4) For the method using GLC chip, the analytes were injected and flowed over anti-SIRPα antibodies immobilized (˜1000 RUs) on GLC chips using Proteon™ Amine Coupling Kit. For the immobilization step, GLC chip was activated with EDAC/Sulpho-NHS 1:1 (Biorad) diluted 1/100 for 300 s at 25 μL/min. Anti-SIRPα antibodies were diluted to 80 nM concentration in 10 mM sodium acetate buffer pH 4.5 and immobilized to the chip at 30 μL/min for 50 s. Chip was inactivated with ethanolamine for 300 s at 25 μL/min. The analytes (e.g., SIRP-α from different species, SIRP-β, SIRP-γ) were injected in a “one-shot” kinetic mode at nominal concentrations of 100, 33, 11, 3.7, 1.2 and 0 nM. Association times were monitored for 90 s at 100 μL/min, and dissociation times were monitored for 1200 s. The surfaces were regenerated with a 2:1 v/v blend of Pierce IgG elution buffer/4M NaCl. […]

human SIRPγ isoform 1 [11] = biological target: T10, human SIRPγ isoform 1 (human, UniProt Q9P1W8 29-147); assay: SPR, antibody immobilised on GLC chip
T10 construct: also called sirpg; sirp-g
Experimental: as §3, §4
T10 sequence (Q9P1W8 29-147 limits assumed): as above

[12] = biological target: T11, human SIRP-α v2 D1 domain (human); assay: SPR, antibody immobilised on GLC chip
T11 construct: also called human v2; human α v2
Experimental: as §3, §4

[13] = biological target: T12, NOD mouse SIRP-α D1 domain (mouse (NOD strain)); assay: SPR, antibody immobilised on GLC chip
T12 chain: T4 chain
Experimental: as §3, §4

[14] = biological target: T13, C57BL/6 mouse SIRP-α D1 domain (mouse (C57BL/6 strain), UniProt P97797 32-148); assay: SPR, antibody immobilised on GLC chip
T13 sequence: T5 sequence
Experimental: as §3, §4

[15] = biological target: T14, BALB/c mouse SIRP-α D1 domain (mouse (BALB/c strain)); assay: SPR, antibody immobilised on GLC chip
T14 chain: T6 chain
Experimental: as §3, §4

T1 sequence (P78324 31-149 limits assumed): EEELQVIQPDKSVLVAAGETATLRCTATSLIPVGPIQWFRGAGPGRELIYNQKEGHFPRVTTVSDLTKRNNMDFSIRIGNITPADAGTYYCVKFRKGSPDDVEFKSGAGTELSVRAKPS
T9 sequence (P78324 31-149 limits assumed): as above
T7 sequence (O00241 30-148 limits assumed): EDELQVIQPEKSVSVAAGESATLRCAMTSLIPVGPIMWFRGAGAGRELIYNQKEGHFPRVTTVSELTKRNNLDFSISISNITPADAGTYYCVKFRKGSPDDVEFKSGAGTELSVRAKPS
T11 sequence (chain, as listed by the source limits assumed): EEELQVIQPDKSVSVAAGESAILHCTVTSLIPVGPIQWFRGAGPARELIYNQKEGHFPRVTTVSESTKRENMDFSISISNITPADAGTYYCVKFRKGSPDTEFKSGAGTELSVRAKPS
T2 sequence (chain, as listed by the source limits assumed): as above

B1: antibody 135 variant, light chain wt / heavy chain Mut_V34M (antibody, V domains shown)
VH: EVQLVESGGGVVQPGGSLRLSCAASGFSFSIYAMSWVRQAPGKGLEWVSTIGADDTYYADSVKGRFTISRDNSKNTLYLQMNSLRAEDTAVYYCAKDSTVGWSGDFFDYWGQGTLVTVSS
VL: EIVLTQSPATLSVSPGERVTFSCRASQNVRSDIAWYQQKPGQAPRLLIYAASSRDTGIPDRFSGSGSGTDFTLTISSLQSEDFGVYYCQQYYDWPPFTFGGGTKVEIK
Human SIRP-α v1 [1]
  Kd: 0.15 nM
Human SIRP-α v2
  Kd: 0.0161 nM
Cynomolgus SIRP-α
  Kd: 0.0794 nM
NOD mouse SIRP-α [2]
  binding result: no binding
BL6 mouse SIRP-α [3]
  binding result: no binding
BALBc mouse SIRP-α [4]
  binding result: no binding
Human SIRPβ isoform 1
  Kd: 0.16 nM
Human SIRPγ isoform 1 [5]
  Kd: 0.533 nM

B2: antibody 135 variant, light chain Mut / heavy chain Mut (antibody, V domains shown)
VH: B1 VH with M34V
VL: B1 VL with F21L, D60A
Human SIRP-α v1 [1]
  Kd: 0.192 nM
Human SIRP-α v2
  Kd: 0.0175 nM
Cynomolgus SIRP-α
  Kd: 0.127 nM
NOD mouse SIRP-α [2]
  binding result: no binding
BL6 mouse SIRP-α [3]
  binding result: no binding
BALBc mouse SIRP-α [4]
  binding result: no binding
Human SIRPβ isoform 1
  Kd: 0.188 nM
Human SIRPγ isoform 1 [5]
  Kd: 0.733 nM

B3: Hum8/AB21_HC_Mutall (antibody, V domains shown)
VH: EVQLVESGGGVVQPGGSLRLSCAASGFTFSSNAMSWVRQAPGKGLEWVAGISAGGSDTYYPASVKGRFTISRDNSKNTLYLQMNSLRAEDTAVYYCARETWNHLFDYWGQGTLVTVSS
VL: SYELTQPPSVSVSPGQTARITCSGGAYSSYYYAWYQQKPGQAPVLVIYSDSKRPSGIPERFSGSSSGTTVTLTISGVQAEDEADYYCGGYDQSSYTNPFGGGTKLTVL
notes: also called Hum8/AB21mutall
Human SIRP-α v1 [6]
  Kd: 0.0201 nM
NOD mouse SIRP-α [7]
  Kd: 27.8 nM
BALBc mouse SIRP-α [8]
  Kd: 71.2 nM

B4: Hum1/AB25_HC_Mutall (antibody, V domains shown)
VH: EVQLVESGGGVVQPGGSLRLSCAASGFTFSSNAMSWVRQAPGKGLEWVAGISSGSDTYYGDSVKGRFTISRDNSKNTLYLQMNSLTAEDTAVYYCARETWNHLFDYWGQGTLVTVSS
VL: B3 VL with A26S, L45T, V46L, S51D, G56N
Human SIRP-α v1 [6]
  Kd: 0.00519 nM
NOD mouse SIRP-α [7]
  Kd: 4.83 nM
BL6 mouse SIRP-α [9]
  Kd: 10.3 nM
BALBc mouse SIRP-α [8]
  Kd: 7.25 nM

B5: Hum1/AB27_HC_Mutall (antibody, V domains shown)
VH: B4 VH with T28R, N32Y, A49S, S55G, G60V, T86R
VL: B3 VL with A26S, L45T, V46L, S51D, G56N
Human SIRP-α v1 [6]
  Kd: 0.00437 nM
NOD mouse SIRP-α [7]
  Kd: 2.92 nM
BL6 mouse SIRP-α [9]
  Kd: 9.03 nM
BALBc mouse SIRP-α [8]
  Kd: 5.77 nM

B6: Hum8/AB25_HC_Mutall (antibody, V domains shown)
VH: B4 VH
VL: B3 VL
Human SIRP-α v1 [6]
  Kd: 0.0262 nM
NOD mouse SIRP-α [7]
  Kd: 20.5 nM
BL6 mouse SIRP-α [9]
  Kd: 497000 nM
BALBc mouse SIRP-α [8]
  Kd: 59.9 nM

B7: Hum9/AB25_HC_Mutall (antibody, V domains shown)
VH: B4 VH
VL: B3 VL with S51D
Human SIRP-α v1 [6]
  Kd: 0.0129 nM
NOD mouse SIRP-α [7]
  Kd: 61.2 nM
BL6 mouse SIRP-α [9]
  Kd: 11.5 nM
BALBc mouse SIRP-α [8]
  Kd: 38.3 nM

B8: antibody 136 variant Mut/mut (antibody, human IgG1, V domains shown)
VH: EVQLVESGGGVVQPGRSLRLSCAASGFTFSSYDVNWVRQAPGKGLEWVSLISGSGEIIYYADSVKGRFTISRDNSKNTLYLQMNSLRAEDTAVYYCAKENNRYRFFDDWGQGTLVTVSS
VL: EIVLTQSPGTLSLSPGERATLSCRASQSVYTYLAWYQQKPGQAPRLLIYGASSRATGIPDRFSGSGSGTEFTLTISSLQSEDFAVYYCQQYYDRPPLTFGGGTKVEIK
notes: Human IgG1 with L234A/L235A/G237A/N297A; Labels are light chain/heavy chain
[10]
  Kd: 7.32 nM
Human SIRPγ isoform 1 [11]
  Kd: 28.8 nM
[12]
  Kd: 12.7 nM
[13]
  Kd: 5.42 nM
[14]
  Kd: 21.6 nM
[15]
  Kd: 2.67 nM

B9: antibody 136 variant MutRv_S22T/mut (antibody, human IgG1, V domains shown)
VH: B8 VH
VL: B8 VL with S22T
notes: as for B8
[10]
  Kd: 4.99 nM
Human SIRPγ isoform 1 [11]
  Kd: 61.7 nM
[12]
  Kd: 8.28 nM
[13]
  Kd: 2.44 nM
[14]
  Kd: 13.3 nM
[15]
  Kd: 1.64 nM

B10: antibody 136 variant MutRv_S12T/mut (antibody, human IgG1, V domains shown)
VH: B8 VH
VL: B8 VL with S12T
notes: as for B8
[10]
  Kd: 4.88 nM
Human SIRPγ isoform 1 [11]
  Kd: 66.7 nM
[12]
  Kd: 10.5 nM
[13]
  Kd: 2.85 nM
[14]
  Kd: 16.3 nM
[15]
  Kd: 2.09 nM

B11: antibody 136 variant MutRv_I2T/mut (antibody, human IgG1, V domains shown)
VH: B8 VH
VL: B8 VL with I2T
notes: as for B8
[10]
  Kd: 0.717 nM
Human SIRPγ isoform 1 [11]
  Kd: 40 nM
[12]
  Kd: 1.86 nM
[13]
  Kd: 0.68 nM
[14]
  Kd: 15.3 nM
[15]
  Kd: 0.422 nM

B12: antibody 136 variant MutRv_Q38E/mut (antibody, human IgG1, V domains shown)
VH: B8 VH
VL: B8 VL with Q38E
notes: as for B8
[10]
  Kd: 6.18 nM
Human SIRPγ isoform 1 [11]
  Kd: 19.3 nM
[12]
  Kd: 12.5 nM
[13]
  Kd: 5.98 nM
[14]
  Kd: 33.1 nM
[15]
  Kd: 2.98 nM

B13: antibody 136 variant, light chain Mut_I2T / heavy chain Mut_V34M (antibody, V domains shown)
VH: B8 VH with V34M
VL: B8 VL with I2T
Human SIRP-α v1 [1]
  Kd: 0.551 nM
Human SIRP-α v2
  Kd: 1.74 nM
Cynomolgus SIRP-α
  Kd: 2.11 nM
NOD mouse SIRP-α [2]
  Kd: 0.596 nM
BL6 mouse SIRP-α [3]
  Kd: 13.8 nM
BALBc mouse SIRP-α [4]
  Kd: 0.361 nM
Human SIRPβ isoform 1
  Kd: 2.22 nM
Human SIRPγ isoform 1 [5]
  Kd: 33.5 nM
